Targets include apoA-I E198K (human); apoA-I L(42,44)D (human); apoA-I L(46,47)D (human).
Common to all, as to experiment: cross-linking

From publication PMC2787660 come the findings set out here.

For the substance apoA-I E198K (natural protein), the stoichiometry N in the test with apoA-I E198K (human) was determined as 2.

In the case of apoA-I L(42,44)D (natural protein), in the test with apoA-I L(42,44)D (human), the stoichiometry N came to 2.

In the test with apoA-I L(46,47)D (human), apoA-I L(46,47)D (natural protein) had a stoichiometry N of 2.
